In data set [1] the test system is MCP T45L-SoxS R93A T45L (bacteriophage MS2). Put plainly: cell_activity. Conditions: E. coli CRISPRa; some function retained.
For data set [2], the system named is MS2 coat protein (MCP)-SoxS R93A fusion (bacteriophage MS2). Briefly: ELONA. As to conditions: protein coated at 10 ug/mL; aptamer 0.25-2500 nM.
Data set [3] addresses T1, MS2 coat protein (MCP)-SoxS R93A fusion, wild-type MCP (bacteriophage MS2).
T1 chain: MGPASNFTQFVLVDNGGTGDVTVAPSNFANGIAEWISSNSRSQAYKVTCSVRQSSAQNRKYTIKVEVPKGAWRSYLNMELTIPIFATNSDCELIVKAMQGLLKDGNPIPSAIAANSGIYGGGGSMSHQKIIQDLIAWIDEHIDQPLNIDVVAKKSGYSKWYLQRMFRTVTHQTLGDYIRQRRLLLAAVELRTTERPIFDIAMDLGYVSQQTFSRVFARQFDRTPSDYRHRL
Briefly: cell_activity; CRISPRa in E. coli with dCas9, J1 promoter-GFP reporter. Conditions: tags: fused to SoxS(R93A); MS2 hairpin in sgRNA scaffold. The text has this: To test the ability of the CRISPR system to accommodate the insertion of an RNA aptamer motif into the sgRNA and allow for locus-specific effector recruitment in E. coli cells, a construct was first designed to insert a known RNA aptamer against bacteriophage MS2 coat protein (MCP) into the tetraloop region of sgRNA (FIG. 3A, SEQ ID NO. 8). Correspondingly, MCP was fused with the SoxS transcriptional activator. Three plasmids (SP, AP, and RP) were designed to introduce into the cell the sgRNA-aptamer chimera, the MCP-SoxS fusion along with dCas9 (SEQ ID NO. 10), and a synthetic reporter construct, respectively (FIG. 4). Following a design principle established by a previous study, the synthetic reporter was constructed to control the expression of enhanced green fluorescent protein (eGFP) by CRISPR co-localized with RNA polymerase through aptamer-MCP interaction (FIG. 3B). This synthetic reporter construct contained a weak promoter and multiple protospacer sequences to be targeted by sgRNA to control levels of gene activation (FIG. 5A).
The distance of the sgRNA target from the transcription start site was also tested by using this reporter. […] Low GFP levels were also observed when an off-target gRNA was used that had no binding site on the J1 synthetic promoter. […]

As to “UUAUCACCUUGGCUGCAGGCGUUUUAGAGCUAGAAAUAGCAAGUUAAAAUAAGGCUAGUCCGUUAUCAACUUGAAAAAGUGCGCACAUGAGGAUCACCCAUGUGCUUUUUU [gRNA J1.3-MS2 aptamer scaffold]”, the binding signal (fold GFP decrease vs wild-type MCP) in data set [1] is 23.

The term Kd denotes the concentration at which binding is half-saturated. The low end stands for a tighter complex, the high end for a looser complex. MS2 aptamer returned a Kd in data set [2] of 26.3 nM. This counts as double-digit nanomolar.

B1: gRNA J1.3-MS2 aptamer scaffold (ssRNA)
RNA: UUAUCACCUUGGCUGCAGGCGUUUUAGAGCUAGAAAUAGCAAGUUAAAAUAAGGCUAGUCCGUUAUCAACUUGAAAAAGUGCGCACAUGAGGAUCACCCAUGUGCUUUUUU
Take B1: the activity in data set [3] came to 56 fold GFP increase.

The values are drawn from US20250215420, “MULTIPLEXABLE CRISPR EDITORS UTILIZING INTRACELLULAR EVOLVED APTAMERS FOR ENDOGENOUS EFFECTOR RECRUITMENT” (The Trustees of Boston College, published 2025).
